# Measured values taken from article PMC3854711, “Handling Uncertainty in Dynamic Models: The Pentose Phosphate Pathway in Trypanosoma brucei” (PLoS Computational Biology, 2013).
# B1: T. brucei ribokinase (Trypanosoma brucei brucei TREU927) (protein)
# chain: MSAAGVKSGNGCIADTPIVVVGACFVDYVAYVDHLPQVGESLRCRSFSKGFGGKGSNQAVCAGRLGASVSMVGAVGTDGDGADYIANFQRNGVQVSNVYRMENTSTGLAMIFVDSTTSHNEIVFSPNATGALTVDYLRKQSDNYNNFFGPKCRYIILQNEIPVETTLDVLKEAHTRGIYTVFNAAPAPSADEVAVVKPFLSYVSLFCVNEVEASMITGIDVKDTQSAILATEEMQKLGAHSVVTTLGGNGYVIGEKGKPPRHLPSITVKAVDSTGAGDCFVGAMVFYLSMGKSLEESCKRANMIAAISVQRPGTQSSYPTLDELPAEVKECKI
# notes: N-terminal His-tag from pET28a(+), expressed in E. coli BL21(DE3), Ni chelate purified
# Legend:
# [1] = substrate: Nc1ncnc2c1ncn2[C@@H]1O[C@H](COP(=O)(O)OP(=O)(O)OP(=O)(O)O)[C@@H](O)[C@H]1O; assay: coupled spectrophotometric assay (PK/LDH, NADH); type: biochemical, Trypanosoma brucei; conditions: ribose co-substrate (5 mM), 10 mM MgCl2, pH 7, 25°C, ribose 5-phosphate production direction
# Text: coupled spectrophotometric assay (PK/LDH, NADH) on T. brucei ribokinase | enzyme kinetics of heterologously expressed T. brucei ribokinase were characterized
# [2] = substrate: Nc1ncnc2c1ncn2[C@@H]1O[C@H](COP(=O)(O)OP(=O)(O)O)[C@@H](O)[C@H]1O; assay: coupled spectrophotometric assay (HXK/G6PDH, NADP); type: biochemical, Trypanosoma brucei; conditions: ribose 5-phosphate co-substrate (5 mM), 10 mM MgCl2, pH 7, 25°C, reverse direction, ribose production
# Text: coupled spectrophotometric assay (HXK/G6PDH, NADP) on T. brucei ribokinase | the enzyme could indeed work in the ribose production direction
protein,measurement,setting,value
B1,Km,[1],240 µM
same,Km,[2],250 µM
